# Reference: US20240270821A1, “GIP/GLP1/GCG TRI-RECEPTOR AGONISTS AND USES THEREOF” (priority 2023, published 2024)
# Residue numbers refer to the chain shown, from its start. Non-standard residues stand in square brackets, D forms with d. No end group written: not given here. αMeL = CC(C)C[C@](C)(N)C(=O)O; Aib = CC(C)(N)C(=O)O
# T1: human GIP receptor (human) (UniProt P48546)
# T1 sequence (looked up): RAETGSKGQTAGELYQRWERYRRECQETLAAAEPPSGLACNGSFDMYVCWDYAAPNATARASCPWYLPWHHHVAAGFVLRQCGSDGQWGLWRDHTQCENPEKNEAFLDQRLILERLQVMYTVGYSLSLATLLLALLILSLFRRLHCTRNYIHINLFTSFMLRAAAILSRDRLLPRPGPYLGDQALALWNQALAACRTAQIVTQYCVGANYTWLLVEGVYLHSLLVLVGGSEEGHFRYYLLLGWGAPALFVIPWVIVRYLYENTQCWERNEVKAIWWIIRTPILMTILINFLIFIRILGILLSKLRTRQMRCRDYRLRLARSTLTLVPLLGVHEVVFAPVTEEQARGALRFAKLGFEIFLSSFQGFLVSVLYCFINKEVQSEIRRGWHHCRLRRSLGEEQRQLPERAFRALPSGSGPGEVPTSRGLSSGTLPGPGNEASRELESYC
# B1: Example 29 (peptide)
# chain: YXQGTFTSDFSXXLDKKAQXAFIEYLLAGGPSSGEPPPSEG
# modifications: Aib, Orn, alpha-methyl-Leu, acylated Lys, C-terminal amide; synthetic construct; SITE 2: note = 2-Aminoisobutyric Acid; SITE 12: note = L-ornithine; SITE 13: note = alpha-methyl-leucine; SITE 17: note = Lysine is chemically modified through conjugation of the epsilon-amino group of the Lysine side chain with (2-[2-(2-Amino-ethoxy)-ethoxy]-acetyl)-(gamma-Glu)
# B2: Example 276 (peptide)
# chain: B1 chain with A28E, G29X, E35A, E40G, G41T
# modifications: synthetic construct; SITE 2: note = 2-Aminoisobutyric Acid; SITE 12: note = L-ornithine; SITE 13: note = alpha-methyl-leucine; SITE 17: note = Lysine is chemically modified through conjugation of the epsilon-amino group of the Lysine side chain with (gamma-Glu)-(2-[2-(2-Amino-ethoxy)-ethoxy]-acetyl)
# B3: Example 86 (peptide)
# chain: B1 chain with E35A, E40G, G41E
# modifications: synthetic construct; SITE 2: note = 2-Aminoisobutyric Acid; SITE 12: note = L-ornithine; SITE 13: note = alpha-methyl-leucine; SITE 17: note = Lysine is chemically modified through conjugation of the epsilon-amino group of the Lysine side chain with (2-[2-(2-Amino-ethoxy)-ethoxy]-acetyl)-(gamma-Glu)
# B4: Example 85 (peptide)
# chain: B1 chain with E35A, E40G, G41D
# modifications: synthetic construct; SITE 2: note = 2-Aminoisobutyric Acid; SITE 12: note = L-ornithine; SITE 13: note = alpha-methyl-leucine; SITE 17: note = Lysine is chemically modified through conjugation of the epsilon-amino group of the Lysine side chain with (2-[2-(2-Amino-ethoxy)-ethoxy]-acetyl)-(gamma-Glu)
# B5: Example 254 (peptide)
# chain: B1 chain with A28E, G29A, E35X, E40G, G41S
# modifications: synthetic construct; SITE 2: note = 2-Aminoisobutyric Acid; SITE 12: note = L-ornithine; SITE 13: note = alpha-methyl-leucine; SITE 17: note = Lysine is chemically modified through conjugation of the epsilon-amino group of the Lysine side chain with (2-[2-(2-Amino-ethoxy)-ethoxy]-acetyl)2-(gamma-Glu)
# B6: Example 256 (peptide)
# chain: B1 chain with A28E, G29A, E35H, E40G, G41X
# modifications: synthetic construct; SITE 2: note = 2-Aminoisobutyric Acid; SITE 12: note = L-ornithine; SITE 13: note = alpha-methyl-leucine; SITE 17: note = Lysine is chemically modified through conjugation of the epsilon-amino group of the Lysine side chain with (2-[2-(2-Amino-ethoxy)-ethoxy]-acetyl)2-(gamma-Glu)
# B7: Example 74 (peptide)
# chain: B1 chain with A28E, G29X, E35A, E40G, G41S
# modifications: synthetic construct; SITE 2: note = 2-Aminoisobutyric Acid; SITE 12: note = L-ornithine; SITE 13: note = alpha-methyl-leucine; SITE 17: note = Lysine is chemically modified through conjugation of the epsilon-amino group of the Lysine side chain with (2-[2-(2-Amino-ethoxy)-ethoxy]-acetyl)-(gamma-Glu)
# B8: Example 255 (peptide)
# chain: B1 chain with A28E, G29A, E35H, E40G, G41H
# modifications: synthetic construct; SITE 2: note = 2-Aminoisobutyric Acid; SITE 12: note = L-ornithine; SITE 13: note = alpha-methyl-leucine; SITE 17: note = Lysine is chemically modified through conjugation of the epsilon-amino group of the Lysine side chain with (2-[2-(2-Amino-ethoxy)-ethoxy]-acetyl)2-(gamma-Glu)
# B9: Example 278 (peptide)
# chain: B1 chain with A28E, G29X, E35A, E40G, G41T
# modifications: synthetic construct; SITE 2: note = 2-Aminoisobutyric Acid; SITE 12: note = L-ornithine; SITE 13: note = alpha-methyl-leucine; SITE 17: note = Lysine is chemically modified through conjugation of the epsilon-amino group of the Lysine side chain with (2-[2-(2-Amino-ethoxy)-ethoxy]-acetyl)-(gamma-Glu)
# B10: Example 253 (peptide)
# chain: B1 chain with A28E, G29A, E35H, E40G, G41S
# modifications: synthetic construct; SITE 2: note = 2-Aminoisobutyric Acid; SITE 12: note = L-ornithine; SITE 13: note = alpha-methyl-leucine; SITE 17: note = Lysine is chemically modified through conjugation of the epsilon-amino group of the Lysine side chain with (2-[2-(2-Amino-ethoxy)-ethoxy]-acetyl)2-(gamma-Glu)
# B11: Example 31 (peptide)
# chain: B1 chain with X12K, S39G
# modifications: Lys acylated; non-natural residues; C-amide; synthetic construct; SITE 2: note = 2-Aminoisobutyric Acid; SITE 13: note = alpha-methyl-leucine; SITE 17: note = Lysine is chemically modified through conjugation of the epsilon-amino group of the Lysine side chain with (2-[2-(2-Amino-ethoxy)-ethoxy]-acetyl)-(gamma-Glu)-CO-(CH2) 18-CO2H; SITE 20: n
# Tests used:
# Experiment in all cases: cell-based or functional assay
# hGLP-1R = hGLP-1R (Homo sapiens, UniProt P43220)
# Sequence of hGLP-1R (P43220 24-463): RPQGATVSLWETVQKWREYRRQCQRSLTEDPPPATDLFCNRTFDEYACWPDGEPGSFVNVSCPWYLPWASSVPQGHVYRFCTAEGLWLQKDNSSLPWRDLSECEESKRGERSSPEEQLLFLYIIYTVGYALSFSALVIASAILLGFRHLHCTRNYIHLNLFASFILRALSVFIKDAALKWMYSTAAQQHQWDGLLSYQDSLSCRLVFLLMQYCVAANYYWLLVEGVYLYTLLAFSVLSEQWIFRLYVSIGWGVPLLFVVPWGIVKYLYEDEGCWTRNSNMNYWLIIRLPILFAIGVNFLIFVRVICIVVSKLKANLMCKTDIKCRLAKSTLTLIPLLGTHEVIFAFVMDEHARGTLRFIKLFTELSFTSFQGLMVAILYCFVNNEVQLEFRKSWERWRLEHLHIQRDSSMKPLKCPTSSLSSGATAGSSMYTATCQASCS
# [1] = target: T1, human GIP receptor (human)
# [2] = target: human GLP1-R (SNAP-GLP-1R expressed in HEK293 cells) (human) (UniProt P43220)
# Sequence of human GLP1-R (SNAP-GLP-1R expressed in HEK293 cells) (human) (P43220 24-463): as above
# [3] = target: human glucagon receptor (human) (UniProt P47871)
# Sequence of human glucagon receptor (human) (P47871 26-477): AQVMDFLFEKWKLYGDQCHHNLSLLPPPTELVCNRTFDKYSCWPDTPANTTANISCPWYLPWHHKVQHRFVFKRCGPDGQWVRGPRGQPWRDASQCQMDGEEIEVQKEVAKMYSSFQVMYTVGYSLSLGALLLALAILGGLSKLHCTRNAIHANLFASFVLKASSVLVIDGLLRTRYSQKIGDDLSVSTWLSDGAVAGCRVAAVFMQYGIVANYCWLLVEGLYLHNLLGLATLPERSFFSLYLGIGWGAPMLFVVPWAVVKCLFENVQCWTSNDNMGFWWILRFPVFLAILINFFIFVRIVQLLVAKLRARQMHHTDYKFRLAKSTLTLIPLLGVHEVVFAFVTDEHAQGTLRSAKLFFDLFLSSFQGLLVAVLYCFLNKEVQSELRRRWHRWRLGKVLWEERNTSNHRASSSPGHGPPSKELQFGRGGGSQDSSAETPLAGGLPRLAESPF
# [4] = target: human GLP-1R (SNAP-GLP-1R expressed in HEK293 cells) (human) (UniProt P43220)
# Sequence of human GLP-1R (SNAP-GLP-1R expressed in HEK293 cells) (human) (P43220 24-463): as the sequence (P43220 24-463) above
Binder,Relative cAMP EC50 (hGLP-1R),cAMP Rel EC50 (in the presence of 1% HSA) (hGLP-1R),Relative cAMP EC50 [1],cAMP Rel EC50 (in the presence of 1% HSA) [1],GLP1R Internalization EC50 [2],Internalization % TOP [2],Relative cAMP EC50 [3],cAMP Rel EC50 (in the presence of 1% HSA) [3],GLP1R Internalization EC50 [4],Internalization % TOP [4]
Y[Aib]QGTFTSDFSK[αMeL]LDKKAQQAFIEYLLA[Aib]GPSSGAPPPSEG-NH2 (not fully specified (residue 17)) [Example 30],3.18 nM,806 nM,0.247 nM,72.9 nM,70.4 nM,72.8%,5.22 nM,969 nM,,
B1,3.56 nM,493 nM,0.35 nM,70.1 nM,129 nM,57%,11.1 nM,1350 nM,,
B2,2.61 nM,103 nM,0.0708 nM,6.28 nM,,,2.82 nM,113 nM,237 nM,68.4%
B3,,,,,57.8 nM,52.5%,,,,
B4,,,,,326 nM,48.3%,,,,
B5,3.08 nM,265 nM,0.121 nM,21.4 nM,,,4.9 nM,767 nM,31.9 nM,47.8%
B6,2.87 nM,235 nM,0.176 nM,17.4 nM,,,5.71 nM,625 nM,87.8 nM,43.5%
B7,,,,,72.7 nM,53.3%,,,,
B8,1.9 nM,272 nM,0.107 nM,21.9 nM,,,5.48 nM,883 nM,47.1 nM,51.8%
B9,4.11 nM,241 nM,0.0963 nM,7.69 nM,,,4.45 nM,274 nM,251 nM,68.6%
B10,2.2 nM,355 nM,0.115 nM,26.6 nM,,,6.62 nM,963 nM,81.6 nM,55.2%
B11,2.16 nM,737 nM,0.249 nM,63.6 nM,91.9 nM,67.4%,8.42 nM,1750 nM,,
